One block for each binder: values may come before it. *1 amine or outer side, *2 acyl side, *3 side chain or, on linkers, in order; H or OH if unused. Where no end group is shown, it is not given here. [ ]: non-standard residue; d: D form. Aci = acivicin, (2S)-amino[(5S)-3-chloro-4,5-dihydroisoxazol-5-yl]acetic acid, O=C([C@@H](N[*:1])[C@@H]1CC(Cl)=NO1)[*:2]; DON = [N-]=[N+]=CC(=O)CC[C@H](N)C(=O)O
Tests used:
[1] = target: T1, recombinant human tissue transglutaminase (human, UniProt P21980 1-687, limits assumed); test: time-dependent inactivation of tTG (9 uM) by 0-600 uM inhibitor; residual activity by glutamate dehydrogenase-coupled assay at 340 nm; double-reciprocal plot
T1 construct: also called tTGase; tTG
T1 sequence (looked up): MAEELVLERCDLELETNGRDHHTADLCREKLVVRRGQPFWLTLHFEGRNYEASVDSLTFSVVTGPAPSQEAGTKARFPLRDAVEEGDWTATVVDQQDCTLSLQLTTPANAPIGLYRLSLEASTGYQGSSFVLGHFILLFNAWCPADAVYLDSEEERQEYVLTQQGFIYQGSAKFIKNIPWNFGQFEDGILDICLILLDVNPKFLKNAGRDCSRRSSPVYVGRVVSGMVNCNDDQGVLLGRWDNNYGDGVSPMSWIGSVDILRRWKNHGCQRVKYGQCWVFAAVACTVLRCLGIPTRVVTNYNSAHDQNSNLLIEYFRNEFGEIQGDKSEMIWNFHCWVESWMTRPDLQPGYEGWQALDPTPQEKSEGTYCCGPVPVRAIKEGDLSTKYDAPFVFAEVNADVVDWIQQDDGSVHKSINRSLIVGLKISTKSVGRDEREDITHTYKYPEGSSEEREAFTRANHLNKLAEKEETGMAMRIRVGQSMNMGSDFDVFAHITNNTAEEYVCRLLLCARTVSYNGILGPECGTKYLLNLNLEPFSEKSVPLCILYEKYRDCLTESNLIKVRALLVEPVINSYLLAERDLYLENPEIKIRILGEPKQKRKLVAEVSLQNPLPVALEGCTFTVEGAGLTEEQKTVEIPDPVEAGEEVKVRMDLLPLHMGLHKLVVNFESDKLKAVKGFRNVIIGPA

[2] = target: T1, recombinant human tissue …; test: time-dependent inactivation of tTG; residual activity by glutamate dehydrogenase-coupled assay at 340 nm; double-reciprocal plot
[3] = target: T2, Ac-PQPQLPF-NH2
T2 chain: PQPQLPF

[4] = target: T3, PQPQLPY
T3 chain: PQPQLPY

Ki [1]: 780 µM
B1: Pro-Gln-Pro-Aci-Leu-Pro-Tyr (peptide)
peptide: PQP[Aci]LPY
notes: Free termini; also called PQPAciLPY; PQP-X-LPY with X = Aci

Ki [2]: 0.07 µM
B2: Ac-Pro-Gln-Pro-Don-Leu-Pro-Phe-NH2 (peptide)
peptide: Ac-PQP[DON]LPF-NH2
SMILES: CC(=O)N1CCC[C@H]1C(=O)N[C@@H](CCC(N)=O)C(=O)N1CCC[C@H]1C(=O)N[C@@H](CCC(=O)C=[N+]=[N-])C(=O)N[C@@H](CC(C)C)C(=O)N1CCC[C@H]1C(=O)N[C@@H](Cc1ccccc1)C(N)=O
notes: here X = DON; also called Ac-PQP-X-LPF-NH2 with X = DON; compound 41

B3: recombinant human tissue transglutaminase (protein)
chain: T1 sequence (looked up)
KM [3]: 400 µM
kcat [3]: 0.667 s⁻¹
kcat/KM [3]: 97000 min^-1M^-1
KM [4]: 300 µM
kcat [4]: 0.467 s⁻¹
